Data published in paper PMC3424247, “The Crystal Structures of the Tryparedoxin-Tryparedoxin Peroxidase Couple Unveil the Structural Determinants of Leishmania Detoxification Pathway” (PLoS Neglected Tropical Diseases, 2012).

Columns and labels:
[1] = biological target: cytosolic tryparedoxin from Leishmania major (Leishmania major) (UniProt E9ADX4); assay: SPR; BIACORE X, CM5 chip; LmTXN immobilised by amine coupling (about 1000 RU), LmTXNPx flowed over (40 nM-4.0 µM); 298 K; HBS-P buffer (10 mM HEPES pH 7.4, 0.15 M NaCl, 0.005% P-20); 30 µL/min; Scatchard analysis of Req
[2] = biological target: tryparedoxin-dependent peroxidase from Leishmania major (Leishmania major); assay: native gel or EMSA; Novex 4-12% Tris-Glycine non-denaturing gels; LmTXNPx 0.5 mg/mL with H2O2 (300, 30, 3 mM) or DTT (50, 5, 1 mM)
[3] = biological target: cytosolic tryparedoxin from Leishmania major (Leishmania major) (UniProt E9ADX4); assay: SPR; as a6 but HBS-P buffer + 1 mM dithiotreitol (reducing conditions); LmTXNPx 40 nM-5 µM; for the dissociation rate DTT was added after 2080 s to the complex formed in HBS-P
[4] = biological target: cytosolic tryparedoxin from Leishmania major (Leishmania major) (UniProt E9ADX4); assay: SPR; as a6 but HBS-P buffer + 30 mM H2O2 (oxidizing conditions); LmTXNPx 80 nM-10 µM
[5] = biological target: tryparedoxin-dependent peroxidase from Leishmania major (Leishmania major); assay: crystal structure; LmTXNPx about 12 mg/mL with 50 mM DTT, 22-26% PEG3350, 100 mM Bis-tris propane pH 8.0, 0.2 M KSCN, 293 K; five molecules per asymmetric unit, decamer from two adjacent asymmetric units; 3.0 Å
[6] = biological target: the molecule itself; assay: crystal structure; LmTXN about 8 mg/mL, hanging drop, 293 K, 20-24% PEG 3350, 100 mM Tris-HCl pH 8.5, 50 mM MgCl2; one molecule per asymmetric unit, dimer by crystallographic two-fold; 1.8 Å

| Molecule | Kd [1] | koff [1] | stoichiometry N [2] | Kd [3] | koff [3] | Kd [4] | koff [4] | stoichiometry N [5] | stoichiometry N [6] |
| --- | --- | --- | --- | --- | --- | --- | --- | --- | --- |
| tryparedoxin-dependent peroxidase from Leishmania major (enzyme) | 1.1 µM | 5e-05 s⁻¹ | 10 | > 20 µM | 0.009 s⁻¹ | > 20 µM | > 0.1 s⁻¹ | 10 |  |
| cytosolic tryparedoxin from Leishmania major (enzyme, UniProt E9ADX4 1-145, looked up, cytosolic tryparedoxin (TXN1) of Leishmania major, gene amplified from L. major DNA with primers that hold the start (CATATG) and the stop codon; residues 2-145 seen in the crystal; Cloned between NdeI and HindIII of pET28b; the tag is probably N-terminal and thrombin probably leaves a few vector residues (surmised); Monomer-dimer equilibrium in solution, mostly monomer; also called LmTXN; TXN; …) MSGVAKHLGEALKLRKQADTADMDSLSGKTVFFYFSASWCPPCRGFTPQLVEFYEKHHDSKNFEIILASWDEEEDDFNAYYAKMPWLSIPFANRNIVEALTKKYSVESIPTLIGLNADTGDTVTTRARHALTQDPMGEQFPWRDE |  |  |  |  |  |  |  |  | 2 |
